What is called Tm is the temperature at which the thermal transition is half complete.

Here are results for one protein from FireProtDB (doi:10.1016/0301-4622(94)00150-i).

“And” between values parts separate entries of the source, which are not always exact repeats. Equal values may be shown once.

For this data set the following is noted: Aspergillus flavus, Thermal, DSC, reversible: No, whole UniProt chain shown.
[1] abbreviates: pH 6.95, Sodium phosphate 50 mM.
The mark [2] stands for this setting: pH 7.45, Sodium phosphate 50 mM.

B1: Uricase wild type, Q00511 (protein)
chain: MSAVKAARYGKDNVRVYKVHKDEKTGVQTVYEMTVCVLLEGEIETSYTKADNSVIVATDSIKNTIYITAKQNPVTPPELFGSILGTHFIEKYNHIHAAHVNIVCHRWTRMDIDGKPHPHSFIRDSEEKRNVQVDVVEGKGIDIKSSLSGLTVLKSTNSQFWGFLRDEYTTLKETWDRILSTDVDATWQWKNFSGLQEVRSHVPKFDATWATAREVTLKTFAEDNSASVQATMYKMAEQILARQQLIETVEYSLPNKHYFEIDLSWHKGLQNTGKNAEVFAPQSDPNGLIKCTVGRSSLKSKL
With B1, the Tm was found to be 65 °C under setting [1]; 68.4 °C under setting [2]; 50.1 °C (pH 7.8, Sodium phosphate 50 mM); 49.9 °C (pH 8.8, Tris-HCl 50 mM). Also, the “unfolding enthalpy (calorimetric)” value is 16.3 kcal/mol under setting [1]; 75.8 kcal/mol and 48.1 kcal/mol (pH 7.2, Sodium phosphate 50 mM); 72 kcal/mol and 53.3 kcal/mol (pH 7.25, Sodium phosphate 50 mM); 57.9 kcal/mol under setting [2]; 82.8 kcal/mol (pH 7.8, Sodium phosphate 50 mM); 78.9 kcal/mol and 29.7 kcal/mol (pH 8.5, Tris-HCl 50 mM). Moreover, the “unfolding enthalpy (calorimetric)” value is 80.1 kcal/mol (pH 8.8, Tris-HCl 50 mM); 76.8 kcal/mol and 26.8 kcal/mol (pH 9.05, Tris-HCl 50 mM); 82.3 kcal/mol and 59.1 kcal/mol (pH 9.5, carbonate 50 mM).
